Patent US20240092918A1 (Novartis, published 2024)

How the values were obtained:
Human CCR7 [1] = target: T1, Human CCR7 (human, UniProt P32248 25-378); assay: cell-based or functional assay
T1 sequence: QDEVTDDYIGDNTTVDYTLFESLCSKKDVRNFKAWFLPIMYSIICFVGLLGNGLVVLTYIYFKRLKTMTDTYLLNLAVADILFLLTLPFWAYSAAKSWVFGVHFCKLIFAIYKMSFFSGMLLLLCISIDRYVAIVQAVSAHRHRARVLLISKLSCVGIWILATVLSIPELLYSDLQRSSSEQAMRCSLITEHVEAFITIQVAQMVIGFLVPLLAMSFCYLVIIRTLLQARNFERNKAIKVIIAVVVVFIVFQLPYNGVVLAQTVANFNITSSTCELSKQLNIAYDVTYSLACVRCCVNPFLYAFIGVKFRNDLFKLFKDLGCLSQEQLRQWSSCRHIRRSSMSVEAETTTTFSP

Human CCR7 [2] = target: T1, Human CCR7; assay: cell-based or functional assay; remark: listed apart in the source
Human CCR7 [3] = target: T1, Human CCR7; assay: FACS binding assay
Human CCR7 [4] = target: T1, Human CCR7; assay: cell-based or functional assay; remark: listed apart in the source
Human CCR7 [5] = target: T1, Human CCR7; assay: cell-based or functional assay; remark: listed apart in the source
Human CCR7 [6] = target: T1, Human CCR7; assay: cell-based or functional assay; remark: listed apart in the source

B1: 674J13 non-humanized CysMab (antibody, human IgG1, kappa, V domains shown)
VH: DVQLQESGPDLVKPSQSLSLTCTVTGYSITSGYSWHWIRQFPGNKLEWMAHIHSSGSTNYNPSLKSRISIIRDTSKNLFFLQLNSVTTEDTATYYCARGGVQAFAYWGQGTLVTVSA
VL: QIVLTQSPAIMSASPGEKVTMTCSASSSVIYMHWYQQKSGTSPKRWIYDTSKLASGVPARFSGSGSGTSYSLTISSMEAEDAATYYCQQWSSNPLTFGAGTTLELKR
Human CCR7 [1]
  ADCC activity; IC50 (nM); surrogate ADCC reporter assay, JVM2 target cells and Jurkat-V158 effector cells: 1.09 nM

B2: 121G12.CysMab.DAPA.MPET.DM4 (antibody, human IgG1, kappa)
heavy: EVQLVESGGGLVKPGGSLRLSCAASGFTFSTYAMSWVRQAPGKGLEWVATISDAGSYSYYPDNVKGRFTISRDNAKNSLYLQMNSLRAEDTAVYYCARRGSRYEEYYVMDYWGQGTTVTVSSASTKGPSVFPLAPSSKSTSGGTAALGCLVKDYFPCPVTVSWNSGALTSGVHTFPAVLQSSGLYSLSSVVTVPSSSLGTQTYICNVNHKPSNTKVDKRVEPKSCDKTHTCPPCPAPELLGGPSVFLFPPKPKDTLMISRTPEVTCVVVAVSHEDPEVKFNWYVDGVEVHNAKTKPREEQYNSTYRVVSVLTVLHQDWLNGKEYKCKVSNKALAAPIEKTISKAKGQPREPQVYTLPPSREEMTKNQVSLTCLVKGFYPCDIAVEWESNGQPENNYKTTPPVLDSDGSFFLYSKLTVDKSRWQQGNVFSCSVMHEALHNHYTQKSLSLSPGK
light: EIVLTQSPATLSVSPGERVTLSCRASQSISNNLHWYQQKPGQAPRLLIKYASQSISGIPARFSGSGSGTDFTLTISSVEPEDFGVYFCQQSSSWLTFGQGTKLEIKRTVAAPSVFIFPPSDEQLKSGTASVVCLLNNFYPREAKVQWKVDNALQSGNSQESVTEQDSKDSTYSLSSTLTLSKADYEKHKVYACEVTHQGLSSPVTKSFNRGEC
modifications: MPET.DM4 linker-drug on the engineered cysteines (E152C, S375C, EU numbering); DAR 3.79
notes: also called 121G12.CysMab.DAPA.MPET.DM4 (DAR 3.8); MPET.DM4 ADC
Human CCR7 [2]
  In vitro cytotoxic activity, IC50 (nM); DEL cells (relative receptor density 67%): 2.28 nM
  In vitro cytotoxic activity, IC50 (nM); JVM2 cells (relative receptor density 79%): 4.62 nM
  In vitro cytotoxic activity, IC50 (nM); KE97 cells (relative receptor density 100%): 2.24 nM
  In vitro cytotoxic activity, IC50 (nM); L540 cells (relative receptor density 175%): 4.9 nM
  In vitro cytotoxic activity, IC50 (nM); MOTN1 cells (relative receptor density 67%): 4.24 nM
  In vitro cytotoxic activity, IC50 (nM); Mec-2 cells (relative receptor density 15%): > 20 nM
  In vitro cytotoxic activity, IC50 (nM); OCI-Ly3 cells (relative receptor density 43%): 6.42 nM
  In vitro cytotoxic activity, IC50 (nM); PEER cells (relative receptor density 2%): > 20 nM
  In vitro cytotoxic activity, IC50 (nM); SUPHD1 cells (relative receptor density 310%): 1.69 nM
Human CCR7 [3]
  geometric mean fluorescence intensity, difference from the unconjugated antibody: ≤ 20%

B3: 121G12.DAPA.sSPDB.DM4 (antibody, human IgG1, kappa)
heavy: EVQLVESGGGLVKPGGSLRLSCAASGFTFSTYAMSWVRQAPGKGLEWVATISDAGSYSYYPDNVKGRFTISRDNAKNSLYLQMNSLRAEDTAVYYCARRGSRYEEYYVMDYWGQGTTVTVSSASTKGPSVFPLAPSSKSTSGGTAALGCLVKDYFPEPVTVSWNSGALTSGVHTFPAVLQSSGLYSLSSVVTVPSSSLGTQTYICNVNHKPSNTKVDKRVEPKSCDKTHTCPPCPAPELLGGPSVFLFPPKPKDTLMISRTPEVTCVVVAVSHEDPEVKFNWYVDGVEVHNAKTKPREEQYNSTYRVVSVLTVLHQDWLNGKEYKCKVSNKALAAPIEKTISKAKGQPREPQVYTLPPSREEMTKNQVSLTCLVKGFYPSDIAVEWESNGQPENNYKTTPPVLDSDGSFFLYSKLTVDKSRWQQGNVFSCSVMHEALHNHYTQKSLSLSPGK
light: B2 light
modifications: sulfo-SPDB-DM4 on endogenous lysines, sites not defined; sulfo-SPDB-DM4 on endogenous lysines, sites not defined (DAR 3.6 as prepared; labelled DAR3.9 in the assays)
notes: also called 121G12.DAPA.sSPDB.DM4 (DAR3.9); sSPDB.DM4 ADC
Human CCR7 [3]
  geometric mean fluorescence intensity, difference from the unconjugated antibody: ≤ 20%

B4: 121G12 non-humanized CysMab (antibody, human IgG1, kappa, V domains shown)
VH: EVQLVESGGGLVKPGGSLKLSCAASGFTFSTYAMSWVRQTPEKRLEWVATISDGGSYSYYPDNVKGRFTISRDNAKNNLYLQMSHLKSEDTAMYYCARRGSRYEEYYVMDYWGQGTSVTVSS
VL: DIVLTQSPATLSVTPGDSVSLSCRASQSISNNLHWYQQKSHESPKLLIKYASQSISGIPSRFSGSGSGTDFTLSINSVETEDFGMYFCQQSNSWLTFGAGTKLGLKR
Human CCR7 [1]
  ADCC activity; IC50 (nM); surrogate ADCC reporter assay, JVM2 target cells and Jurkat-V158 effector cells: 0.077 nM

B5: 121G12.CysMab.AURIX1 (antibody, human IgG1, kappa, V domains shown)
VH: B4 VH
VL: B4 VL
modifications: AURIX1 on the engineered cysteines; DAR 3.80
notes: also called 121G12.AURIX1; 121G12 parental.Cys-Mab.wild type Fc.hIgG1.AURIX1
Human CCR7 [3]
  geometric mean fluorescence intensity, difference from the unconjugated antibody: ≤ 20%

B6: 506E15 Parental (antibody, V domains shown)
VH: EVMLVESGGGLVKPGGSLKLSCAASGFTFSSYAMSWIRQTPEKRLEWVATISSGGSFTYYPDSVKGRFTISRDNVKNTLYLQMSSLRSEDTAMYYCARRASTVVGTDFDVWGAGTTVTVSS
VL: DIQMTQSPSSLSASLGERVSLTCRASQDIGSSLNWLQQEPDGTIKRLIYATSSLDSGVPKRFSGSRSGSDYSLTISSLESEDFVVYYCLQYASSPPTFGGGTKLEIK
Human CCR7 [4]
  506E15 IC50 (nM); ADCC reporter assay, ALL-SIL cells (6,200 CCR7 receptors): 0.008 nM
  506E15 IC50 (nM); ADCC reporter assay, CMLT-1 cells (29,000 CCR7 receptors): 0.011 nM
  506E15 IC50 (nM); ADCC reporter assay, DEL cells (62,000 CCR7 receptors): 0.074 nM
  506E15 IC50 (nM); ADCC reporter assay, DND-41 cells (1,700 CCR7 receptors): 0.002 nM
  506E15 IC50 (nM); ADCC reporter assay, JVM2 cells (66,500 CCR7 receptors): 0.046 nM
  506E15 IC50 (nM); ADCC reporter assay, Jurkat V158 cells (3,400 CCR7 receptors): 0.004 nM
  506E15 IC50 (nM); ADCC reporter assay, MOTN-1 cells (64,600 CCR7 receptors): 0.077 nM
  506E15 IC50 (nM); ADCC reporter assay, PEER cells (8,700 CCR7 receptors): 0.038 nM
  506E15 IC50 (nM); ADCC reporter assay, SR786 cells (27,800 CCR7 receptors): 0.011 nM

B7: 506E15 non-humanized CysMab (antibody, human IgG1, kappa, V domains shown)
VH: B6 VH
VL: DIQMTQSPSSLSASLGERVSLTCRASQDIGSSLNWLQQEPDGTIKRLIYATSSLDSGVPKRFSGSRSGSDYSLTISSLESEDFVVYYCLQYASSPPTFGGGTKLEIKR
Human CCR7 [1]
  ADCC activity; IC50 (nM); surrogate ADCC reporter assay, JVM2 target cells and Jurkat-V158 effector cells: 0.131 nM

B8: 674J13.CysMab.DAPA.AURIX2 (antibody, human IgG1, kappa, V domains shown)
VH: DVQLQESGPGLVKPSQTLSLTCTVSGYSITSGYSWHWIRQHPGKGLEWMAHIHSSGSTNYNPSLKSRITISRDTSKNQFSLKLSSVTAADTAVYYCARGGVQAFAYWGQGTLVTVSS
VL: EIVLTQSPATLSASPGERVTMSCSASSSVIYMHWYQQKPGQAPRRWIYDTSKLASGVPARFSGSGSGTDYTLTISSMEPEDAAVYYCQQWSSNPLTFGQGTKLEIKR
modifications: DAR LC 0.03; AURIX2 on the engineered cysteines; DAR HC 3.93
notes: also called 674J13.DAPA.AURIX2
Human CCR7 [3]
  geometric mean fluorescence intensity, difference from the unconjugated antibody: ≤ 20%
Human CCR7 [5]
  ADC activity in cell viability assay; IC50 (nM); CML-T1 cells (~29,000 CCR7 receptors): 3.78 nM
  ADC activity in cell viability assay; IC50 (nM); DEL cells (~100,000 CCR7 receptors): 0.242 nM
  ADC activity in cell viability assay; IC50 (nM); KE97 cells (~100,000 CCR7 receptors): 0.102 nM
  ADC activity in cell viability assay; IC50 (nM); SR786 cells (~28,000 CCR7 receptors): 2.74 nM

B9: 506E15 (Humanized CysMab DAPA) (antibody, human IgG1, kappa, V domains shown)
VH: EVQLVESGGGLVKPGGSLRLSCAASGFTFSSYAMSWIRQAPGKGLEWVATISSGGSFTYYPDSVKGRFTISRDNAKNSLYLQMNSLRAEDTAVYYCARRASTVVGTDFDVWGQGTTVTVSS
VL: DIQMTQSPSSLSASVGDRVTLTCRASQDIGSSLNWLQQKPGKAIKRLIYATSSLDSGVPSRFSGSRSGTDYTLTISSLQPEDFVVYYCLQYASSPPTFGGGTKLEIKR
Human CCR7 [6]
  pHrodo (6 h MFI), uptake of pHrodo-labelled antibody at 5 ug/ml, CD4+ T cells (2000 receptors): 429 MFI
  pHrodo (6 h MFI), uptake of pHrodo-labelled antibody at 5 ug/ml, CMLT1 cells (19583 receptors): 465 MFI
  pHrodo (6 h MFI), uptake of pHrodo-labelled antibody at 5 ug/ml, DEL cells (110685 receptors): 3060 MFI
  pHrodo (6 h MFI), uptake of pHrodo-labelled antibody at 5 ug/ml, JVM3 cells (8717 receptors): 238 MFI
  pHrodo (6 h MFI), uptake of pHrodo-labelled antibody at 5 ug/ml, Jeko-1 cells (28852 receptors): 908 MFI
  pHrodo (6 h MFI), uptake of pHrodo-labelled antibody at 5 ug/ml, KE97 cells (152093 receptors): 2720 MFI
  pHrodo (6 h MFI), uptake of pHrodo-labelled antibody at 5 ug/ml, L540 cells (167549 receptors): 16100 MFI
  pHrodo (6 h MFI), uptake of pHrodo-labelled antibody at 5 ug/ml, L1236 cells (61602 receptors): 3130 MFI
  pHrodo (6 h MFI), uptake of pHrodo-labelled antibody at 5 ug/ml, MJ cells (111121 receptors): 3870 MFI
  pHrodo (6 h MFI), uptake of pHrodo-labelled antibody at 5 ug/ml, MOTN1 cells (84200 receptors): 2900 MFI
  pHrodo (6 h MFI), uptake of pHrodo-labelled antibody at 5 ug/ml, Mec2 cells (50840 receptors): 3090 MFI

B10: 506E15.CysMab.DAPA.AURIX2 (antibody, human IgG1, kappa, V domains shown)
VH: B9 VH
VL: B9 VL
modifications: AURIX2 on the engineered cysteines; DAR 3.80
notes: also called 506E15.DAPA.AURIX2
Human CCR7 [3]
  geometric mean fluorescence intensity, difference from the unconjugated antibody: ≤ 20%

B11: 506E15 humanized CysMab (Fc Wild Type) (antibody, human IgG1, V domains shown)
VH: B9 VH
VL: DIQMTQSPSSLSASVGDRVTLTCRASQDIGSSLNWLQQKPGKAIKRLIYATSSLDSGVPSRFSGSRSGTDYTLTISSLQPEDFVVYYCLQYASSPPTFGGGTKLEIK
Human CCR7 [1]
  ADCC activity; IC50 (nM); surrogate ADCC reporter assay, JVM2 target cells and Jurkat-V158 effector cells: 0.054 nM

B12: 684E12 non-humanized CysMab (antibody, human IgG1, kappa, V domains shown)
VH: EVHLVESGGGLVKPGGSLKLSCAASGFTFSNFAMSWVRQTPEKRLEWVATISTGGTYTYYPDSVKGRFTISRDNAKKTLYLQMSSLRSEDTAMYYCTRRGYDGVDKWGQGTTLTVSS
VL: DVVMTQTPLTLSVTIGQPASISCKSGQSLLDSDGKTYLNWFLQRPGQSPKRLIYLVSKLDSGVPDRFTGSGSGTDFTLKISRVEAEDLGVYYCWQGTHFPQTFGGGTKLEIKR
Human CCR7 [1]
  ADCC activity; IC50 (nM); surrogate ADCC reporter assay, JVM2 target cells and Jurkat-V158 effector cells: 2.63 nM

B13: 684E12.SMCC.DM1 (antibody, V domains shown)
VH: B12 VH
VL: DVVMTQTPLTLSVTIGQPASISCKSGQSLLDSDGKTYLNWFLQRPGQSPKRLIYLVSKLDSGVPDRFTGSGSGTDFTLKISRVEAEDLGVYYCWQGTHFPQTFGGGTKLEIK
modifications: SMCC-DM1 on lysines of the antibody, sites not defined; DAR 2.6
notes: also called parental 684E12.SMCC.DM1 (DAR2.6)
Human CCR7 [3]
  geometric mean fluorescence intensity, difference from the unconjugated antibody: ≤ 20%
